Patent US20210238260A1

Key:
[1] = biological target: antithrombin III (plasma purified human AT-III), in complex with unfractionated heparin (human) (UniProt P01008); experiment: AT-III/UFH inhibition of FIXa; residual activity on Pefafluor FIXa substrate, varied incubation time
[2] = biological target: antithrombin III (AT-III), plasma purified human, in complex with unfractionated heparin (UFH) (human) (UniProt P01008); experiment: inhibition of FIXa by AT-III/UFH, pseudo-first-order, residual activity on Mesyl-D-CHG-Gly-Arg-AMC
[3] = biological target: plasma purified human AT-III (antithrombin III) in complex with unfractionated heparin (human) (UniProt P01008); experiment: residual FIXa activity on Mesyl-D-CHG-Gly-Arg-AMC after timed incubation with AT-III/UFH (0-500 nM AT-III, 1 uM UFH); kapp from K0.5

Substance	kapp (second-order rate constant for inhibition) [2] [M⁻¹ s⁻¹]	also measured
FIXa D85N/K228N/R318Y/R338E/R403E/E410N (from UniProt P00740 47-191; P00740 227-461) (enzyme)	–	kapp (apparent second-order rate constant for inhibition) [1]: 3000 M⁻¹ s⁻¹
FIXa-Y155F/K247N/N249S/R318Y/R338E/T343R/R403E (from UniProt P00740 47-191; P00740 227-461) (enzyme)	2300	–
FIXa-Y155F/N260S/R318Y/R338E/T343R/R403E/E410N (from UniProt P00740 47-191; P00740 227-461) (enzyme)	2600	–
FIXa R318Y/R338E/R403E/E410S (from UniProt P00740 47-191; P00740 227-461) (enzyme)	–	kapp (apparent second-order rate constant for inhibition) [1]: 1600 M⁻¹ s⁻¹
FIXa-K247N/N249S/R318Y/R338E/T343R/R403E/E410N (from UniProt P00740 47-191; P00740 227-461) (enzyme)	9600	–
FIXa D104N/K106S/Y155F/K247N/N249S/R318Y/R338E/R403E/E410N (from UniProt P00740 47-191; P00740 227-461) (enzyme)	–	kapp (apparent second-order rate constant for inhibition) [1]: 1000 M⁻¹ s⁻¹
FIXa-Y155F/K247N/N249S/R338E/T343R (from UniProt P00740 47-191; P00740 227-461) (enzyme)	1.2e+07	–
FIXa-R338E/T343R/R403E (from UniProt P00740 47-191; P00740 227-461) (enzyme)	190000	–
FIXa Y155F/K247N/N249S/R318Y/R338E/E410N (from UniProt P00740 47-191; P00740 227-461) (enzyme)	–	kapp (apparent second-order rate constant for inhibition) [1]: 180000 M⁻¹ s⁻¹
FIXa D203N/F205T/R318Y/E410N (from UniProt P00740 47-191; P00740 227-461) (enzyme)	–	kapp (apparent second-order rate constant for inhibition) [1]: 53000 M⁻¹ s⁻¹
FIXa-Y155F/R318Y/T343R/R403E/E410N (from UniProt P00740 47-191; P00740 227-461) (enzyme)	55000	–
FIXa-Y155F/N260S/R338E/T343R/R403E (from UniProt P00740 47-191; P00740 227-461) (enzyme)	40000	–
FIXa-Y155F/K247N/N249S/R318Y/R338E (from UniProt P00740 47-191; P00740 227-461) (enzyme)	27000	–
FIXa-Y155F/K247N/N249S/T343R/R403E (from UniProt P00740 47-191; P00740 227-461) (enzyme)	140000	–
FIXa-Y155F/I251S/R338E/T343R/R403E (from UniProt P00740 47-191; P00740 227-461) (enzyme)	160000	–
FIXa K228N/R318Y/E410N (from UniProt P00740 47-191; P00740 227-461) (enzyme)	–	kapp (apparent second-order rate constant for inhibition) [1]: 1.9e+06 M⁻¹ s⁻¹
FIXa T343R (from UniProt P00740 47-191; P00740 227-461) (enzyme)	–	kapp (apparent second-order rate constant for inhibition) [1]: 4.2e+06 M⁻¹ s⁻¹
FIXa-Y155F/R338E/T343R/R403E (from UniProt P00740 47-191; P00740 227-461) (enzyme)	93000	–
FIXa-K228N/K247N/N249S/R318Y/R338E/T343R/R403E/E410N (from UniProt P00740 47-191; P00740 227-461) (enzyme)	5300	–
FIXa-Y155F/K247N/N249S/R318Y/R338E/T343R/E410N (from UniProt P00740 47-191; P00740 227-461) (enzyme)	220000	–
FIXa K228N/R318Y/R338E/R403E/E410N (from UniProt P00740 47-191; P00740 227-461) (enzyme)	–	kapp (apparent second-order rate constant for inhibition) [1]: 2900 M⁻¹ s⁻¹
FIXa Y155F/R318Y/R338E/E410N (from UniProt P00740 47-191; P00740 227-461) (enzyme)	–	kapp (apparent second-order rate constant for inhibition) [1]: 450000 M⁻¹ s⁻¹
FIXa-R318Y/T343R/R403E/E410N (from UniProt P00740 47-191; P00740 227-461) (enzyme)	93000	–
FIXa Y345T (from UniProt P00740 47-191; P00740 227-461) (enzyme)	–	kapp (apparent second-order rate constant for inhibition) [1]: 1.8e+06 M⁻¹ s⁻¹
FIXa K247N/N249S/R318Y/R338E/E410N (from UniProt P00740 47-191; P00740 227-461) (enzyme)	–	kapp (apparent second-order rate constant for inhibition) [1]: 860000 M⁻¹ s⁻¹
FIXa I251S/R318Y/R338E/E410N (from UniProt P00740 47-191; P00740 227-461) (enzyme)	–	kapp (apparent second-order rate constant for inhibition) [1]: 240000 M⁻¹ s⁻¹
FIXa Y155F/R318Y/R403E/E410N (from UniProt P00740 47-191; P00740 227-461) (enzyme)	–	kapp (apparent second-order rate constant for inhibition) [1]: 8100 M⁻¹ s⁻¹
FIXa-Y155F/R318Y/R338E/T343R/E410N (from UniProt P00740 47-191; P00740 227-461) (enzyme)	780000	–

Substance	kapp (second-order rate constant for inhibition) [2] [M⁻¹ s⁻¹]	also measured
FIXa T343Q (from UniProt P00740 47-191; P00740 227-461) (enzyme)	–	kapp (apparent second-order rate constant for inhibition) [1]: 2.1e+06 M⁻¹ s⁻¹
FIXa-K228N/I251S/R318Y/R338E/R403E/E410N (from UniProt P00740 47-191; P00740 227-461) (enzyme)	900	–
FIXa-Y155F/K247N/N249S/R318Y/E410N (from UniProt P00740 47-191; P00740 227-461) (enzyme)	130000	–
FIXa Y155F/K228N/R318Y/R338E/R403E/E410N (from UniProt P00740 47-191; P00740 227-461) (enzyme)	–	kapp (apparent second-order rate constant for inhibition) [1]: 4600 M⁻¹ s⁻¹
FIXa-Y155F/K247N/N249S/R318Y/R338E/T343R/R403E/E410N (from UniProt P00740 47-191; P00740 227-461) (enzyme)	8700	–
FIXa-R318Y/R338E/T343R/R403E (from UniProt P00740 47-191; P00740 227-461) (enzyme)	5800	–
FIXa-K247N/N249S/R318Y/R338E/T343R/R403E (from UniProt P00740 47-191; P00740 227-461) (enzyme)	1700	–
FIXa-Y155F/K228N/K247N/N249S/R318Y/R338E/T343R/R403E/E410N (from UniProt P00740 47-191; P00740 227-461) (enzyme)	2200	–
FIXa-R318Y/R338E/T343R/R403E/E410S (from UniProt P00740 47-191; P00740 227-461) (enzyme)	9900	–
FIXa-Y155F/K247N/N249S/R318Y/R403E (from UniProt P00740 47-191; P00740 227-461) (enzyme)	2100	–
FIXa-Y155F/R318Y/R338E/T343R/R403E (from UniProt P00740 47-191; P00740 227-461) (enzyme)	2800	–
FIXa-T343R/N346Y (from UniProt P00740 47-191; P00740 227-461) (enzyme)	–	kapp (apparent second-order rate constant for inhibition) [3]: 4.2e+06 M⁻¹ s⁻¹
FIXa-Y155F/K247N/N249S/R338E/R403E (from UniProt P00740 47-191; P00740 227-461) (enzyme)	13000	–
FIXa-Y155F/N260S/R318Y/R338E/R403E/E410N (from UniProt P00740 47-191; P00740 227-461) (enzyme)	–	kapp (apparent second-order rate constant for inhibition) [3]: 2100 M⁻¹ s⁻¹
FIXa-D104N/K106S/K228N/K247N/N249S/R318Y/R338E/R403E/E410N (from UniProt P00740 47-191; P00740 227-461) (enzyme)	–	kapp (apparent second-order rate constant for inhibition) [3]: 680 M⁻¹ s⁻¹
FIXa-Y155F/R338E/T343R/R403E/E410S (from UniProt P00740 47-191; P00740 227-461) (enzyme)	220000	–
FIXa-Y155F/K247N/N249S/R338E/T343R/R403E/E410N (from UniProt P00740 47-191; P00740 227-461) (enzyme)	89000	–
FIXa-Y155F/R338E/T343R/R403E/E410N (from UniProt P00740 47-191; P00740 227-461) (enzyme)	280000	–
FIXa-K247N/N249S/R338E/T343R/R403E/E410N (from UniProt P00740 47-191; P00740 227-461) (enzyme)	86000	–
FIXa-R318Y/R338E/T412A (from UniProt P00740 47-191; P00740 227-461) (enzyme)	–	kapp (apparent second-order rate constant for inhibition) [3]: 350000 M⁻¹ s⁻¹
FIXa-Y155F/K228N/I251S/R318Y/R338E/R403E/E410N (from UniProt P00740 47-191; P00740 227-461) (enzyme)	1300	–
FIXa-R318Y/R338E/Y345A/R403E/E410N (from UniProt P00740 47-191; P00740 227-461) (enzyme)	–	kapp (apparent second-order rate constant for inhibition) [3]: 7900 M⁻¹ s⁻¹
FIXa-R318Y/R338E/R403E/E410N/T412A (from UniProt P00740 47-191; P00740 227-461) (enzyme)	–	kapp (apparent second-order rate constant for inhibition) [3]: 3800 M⁻¹ s⁻¹
FIXa-R318Y/R338E/R403E/T412A (from UniProt P00740 47-191; P00740 227-461) (enzyme)	–	kapp (apparent second-order rate constant for inhibition) [3]: 1600 M⁻¹ s⁻¹
FIXa-N260S/R318Y/R338E/T343R/R403E/E410N (from UniProt P00740 47-191; P00740 227-461) (enzyme)	2600	–
FIXa-K247N/N249S/N260S/R318Y/R338E/R403E/E410N (from UniProt P00740 47-191; P00740 227-461) (enzyme)	–	kapp (apparent second-order rate constant for inhibition) [3]: 1300 M⁻¹ s⁻¹
FIXa-R318Y/R338E/N346D/R403E/E410N (from UniProt P00740 47-191; P00740 227-461) (enzyme)	–	kapp (apparent second-order rate constant for inhibition) [3]: 1100 M⁻¹ s⁻¹
